Reference: paper doi:10.1101/303537 (bioRxiv, 2018)
Values belong to the binder of their own block, whether it stands above or below them. Where no end group is shown, it is not given here.

How the values were obtained:
[1] = biological target: Retinoblastoma binding protein 7 (RBBP7) (human, UniProt Q16576 1-425); assay: fluorescence polarisation
[2] = biological target: Retinoblastoma binding protein 4 (RBBP4) (human, UniProt Q09028 1-425); assay: fluorescence polarisation
Sequence of Retinoblastoma binding protein 4 (RBBP4) (Q09028 whole entry): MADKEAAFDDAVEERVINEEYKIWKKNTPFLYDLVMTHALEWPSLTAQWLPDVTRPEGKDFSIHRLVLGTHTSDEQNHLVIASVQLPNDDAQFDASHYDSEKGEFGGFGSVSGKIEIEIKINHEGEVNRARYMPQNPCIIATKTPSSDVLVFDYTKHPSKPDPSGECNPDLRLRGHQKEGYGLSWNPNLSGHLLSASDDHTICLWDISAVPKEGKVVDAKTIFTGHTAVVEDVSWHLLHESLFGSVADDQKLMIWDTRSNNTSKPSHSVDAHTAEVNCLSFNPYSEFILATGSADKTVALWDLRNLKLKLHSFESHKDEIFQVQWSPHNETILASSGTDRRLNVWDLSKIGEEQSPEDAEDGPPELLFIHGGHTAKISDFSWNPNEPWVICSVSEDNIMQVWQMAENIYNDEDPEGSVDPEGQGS

Sequence of Retinoblastoma binding protein 7 (RBBP7) (Q16576 whole entry): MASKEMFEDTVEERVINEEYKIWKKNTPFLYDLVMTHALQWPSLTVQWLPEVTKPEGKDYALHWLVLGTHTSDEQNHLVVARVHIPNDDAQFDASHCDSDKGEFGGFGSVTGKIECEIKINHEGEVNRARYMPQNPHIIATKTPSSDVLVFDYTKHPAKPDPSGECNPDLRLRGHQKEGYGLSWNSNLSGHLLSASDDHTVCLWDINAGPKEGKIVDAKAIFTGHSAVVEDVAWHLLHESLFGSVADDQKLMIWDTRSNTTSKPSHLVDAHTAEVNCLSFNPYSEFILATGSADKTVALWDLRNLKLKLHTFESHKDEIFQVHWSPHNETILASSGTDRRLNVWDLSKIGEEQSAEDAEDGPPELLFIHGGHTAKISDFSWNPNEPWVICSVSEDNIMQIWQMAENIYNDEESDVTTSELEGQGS

Kd [1]: 135 ± 12 nM
B1: FITC-labeled histone H4 (16–41) peptide (peptide)
peptide: not shown
modifications: FITC label (position not given)

Kd [2]: 6400 ± 600 nM
Binder: LIAPIFLHRTLTYMSHR (also: FITC label (position not given here)) [FITC-labeled SUZ12 (105–121) peptide]

Kd [2]: 488 ± 245 nM
Binder: MSRRKQSNPRQIKRS (also: FITC label (position not given here)) [FITC-labeled FOG-1 (1–15) peptide]

Kd [2]: 201 ± 102 nM
Binder: KSKKKSRKGRPRKTN (also: FITC label (position not given here)) [FITC-labeled PHF6 (157–171) peptide]
